# Results from patent US12216128B2, “Methods for guiding therapy decisions in seizure disorders” (Mayo Foundation for Medical Education and Research, priority 2018, dated 2025).
# How the values were obtained:
# [1] = IL-1RA ELISA in FIRES patient serum and CSF before and after initiation of anakinra treatment; assay type: in vivo, human; conditions: detects the exogenous IL-1RA
# Method: IL-1RA enzyme-linked immunosorbent assay: The human IL-1RA/IL1F3 Quantikine ELISA kit (R&D Systems) was used according to the manufacturer's instructions. Serum and CSF samples were diluted (1:2-1:5000 in assay diluent) and duplicate samples were measured against a standard curve (31.3-2000 pg/mL in duplicate). After chromogen development, absorbance was measured on a Spectramax M3 multi-mode microplate reader (Molecular Devices). Absorbances falling outside the range of the standard curve were reanalyzed at different dilutions.
# To determine whether there was a diminished level of endogenous IL-1RA in FIRES patient serum or CSF, IL-1RA levels were measured by enzyme-linked immunosorbent assay (ELISA) in FIRES patient serum and CSF before and after initiation of anakinra treatment, as well as in serum from healthy controls, CSF from normal pressure hydrocephalus patients, and serum and CSF from patients with other seizure disorders. […] IL-1RA was strongly elevated in FIRES CSF compared to normal pressure hydrocephalus controls and patients with ESES or focal epilepsy (FIG. 1C). CSF IL-1β levels, which were only rarely detectable in healthy controls, were also elevated in among FIRES patients (FIG. 1D). […] This finding also was consistent with reports of elevated IL-1RA following seizure activity (Lehtimaki et al., Neuroimmunomodulation 17(1):19-22, 2010).
# children with FIRES = conditions: Kenney-Jung et al. 2016; cited from earlier work
# human IL-1R = biological target: T1, human IL-1R (Homo sapiens, UniProt P14778); test: HEK-Blue IL1R cell-based IL-1R signaling reporter assay (SEAP, Quanti-Blue, absorbance 655 nm)
# T1 construct: Human embryonic kidney (HEK) cells expressing murine and human IL-1 receptor proteins; host or cells: HEK-Blue IL1R (HEK293-derived reporter cells)
# T1 sequence (P14778 18-569): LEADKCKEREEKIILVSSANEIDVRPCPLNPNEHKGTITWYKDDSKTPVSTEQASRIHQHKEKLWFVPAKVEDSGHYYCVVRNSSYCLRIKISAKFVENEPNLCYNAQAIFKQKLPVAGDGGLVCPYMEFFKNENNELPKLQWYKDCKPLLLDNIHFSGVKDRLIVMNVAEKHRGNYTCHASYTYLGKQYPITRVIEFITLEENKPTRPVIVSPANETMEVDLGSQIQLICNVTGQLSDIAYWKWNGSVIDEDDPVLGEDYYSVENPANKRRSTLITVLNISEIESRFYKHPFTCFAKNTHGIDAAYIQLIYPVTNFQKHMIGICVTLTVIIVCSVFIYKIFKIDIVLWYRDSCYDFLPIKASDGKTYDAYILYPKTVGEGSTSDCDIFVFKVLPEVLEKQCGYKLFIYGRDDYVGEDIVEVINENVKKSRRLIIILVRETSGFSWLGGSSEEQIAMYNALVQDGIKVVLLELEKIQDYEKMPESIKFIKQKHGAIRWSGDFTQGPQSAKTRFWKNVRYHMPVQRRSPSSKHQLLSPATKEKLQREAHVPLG
# Method: HEK-Blue IL1R cells: Human embryonic kidney (HEK) cells expressing murine and human IL-1 receptor proteins, as well as expressing secreted embryonic alkaline phosphatase under NF-kB/AP1 transcriptional control (HEK-Blue IL1R, InvivoGen), were maintained in DMEM with 10% FBS, 2 mM glutamine, 50 U/mL penicillin, 50 μg/ml streptomycin, 100 μg/ml Normocin, 200 μg/mL hygromicin B, 1 μg/mL puromycin, and 100 μg/ml Zeocin. Heat inactivated human serum tested negative for background alkaline phosphatase activity. In initial experiments, HEK-Blue IL1R cells were treated for 24 hours with 0-100 ng/mL recombinant human IL-1β (Peprotech) in the presence of 0-200 ng/mL anakinra. In subsequent experiments, cells were treated with 32 pg/mL IL-1β for all conditions. After 3 hours, saturating concentrations (10 μg/mL) of anakinra were added to the cells to block further IL-1R signaling, and endpoint supernatants were collected at 24 hours. Supernatants (20-40 μL) were mixed with prewarmed QUANTI-Blue reagent (160 μL, InvivoGen) and incubated at 37° C. in a Spectramax M3 multi-mode microplate reader (Molecular Devices). Absorbance at 655 nm was recorded every 5 minutes for 3 hours via kinetic read. The basal absorbance of untreated HEK-Blue IL-1R cell supernatant was subtracted from all samples to normalize for non-specific signal.
# Given that both IL-1β and IL-1RA were elevated in FIRES patient serum, experiments were conducted to determine whether the elevation translated into a change in overall IL-1R signaling activity. To develop a sensitive functional measurement of IL-1R signaling activity, a cell based assay using HEK-Blue IL1R cells was developed and optimized. These cells express human IL-1R and respond to IL-1R signaling-induced NFκB activity by producing secreted embryonic alkaline phosphatase (SEAP), which dose-dependently results in increased absorbance of 655 nm wavelength light upon incubation with Quanti-Blue substrate (FIG. 2A).
# To investigate this possibility, the antagonistic activity of FIRES patient CSF-derived IL-1RA was assessed using an in vitro HEK-Blue IL1R cell-based assay. […] Thus, HEK-Blue IL1R cells were treated with 32 pg/mL IL-1β in the presence of either 50% dialyzed FIRES patient CSF containing 65 pM patient IL-1RA or 50% dialyzed CSF derived from NPH patients that was supplemented with recombinant IL-1RA prior to dialysis to reach concentrations of IL-1RA equimolar to that seen in FIRES patient CSF. The percent inhibition of IL-1R-induced SEAP was then compared in cells treated with 50% CSF containing 65 pM FIRES patient IL-1RA vs. 50% CSF containing 65 pM anakinra.
substance,measurement,setting,value
anakinra: recombinantly-produced human IL-1RA,CSF level of IL-1RA following treatment,[1]; FIRES patient CSF,further increased
same,serum level of IL-1RA following treatment,[1]; FIRES patient serum,further increased
same,clinical response of seizure disorder,children with FIRES,some children with FIRES respond
same,suppression of the measured increase in IL-1R activity elicited by serum plus IL-1β,"human IL-1R; 32 pg/mL IL-1β in the presence of 10% serum (HC, FE, FIRES, ESES), all conditions, FIG. 3E",at least partially suppressed
same,IL-1R signaling in IL-1β treated HEK cells compared to unsupplemented NPH CSF,"human IL-1R; 32 pg/mL IL-1β, 50% dialyzed NPH CSF supplemented with 65 pM, FIG. 5B",significantly less IL-1R signaling
same,inhibition of IL-1R signaling in dialyzed CSF,"human IL-1R; CSF dialyzed against DMEM/F12, 100 Dalton cut off membrane, FIG. 4D",restored anakinra-mediated inhibition
same,blockade of IL-1β-induced IL-1R signaling (SEAP),"human IL-1R; HEK-Blue IL1R cells, co-treatment with IL-1β, FIG. 2B",competitively blocked
same,inhibition of IL-1R signaling in undialyzed CSF,"human IL-1R; media containing 50% control CSF or artificial CSF, compared to complete media, FIGS. 4A-4C",did not show inhibition of IL-1R signaling
